Results published in patent publication US20240059799A1 (Pfizer, published 2024).

T1: recombinant human TL1A (human, UniProt O95150 71-251)
T1 chain: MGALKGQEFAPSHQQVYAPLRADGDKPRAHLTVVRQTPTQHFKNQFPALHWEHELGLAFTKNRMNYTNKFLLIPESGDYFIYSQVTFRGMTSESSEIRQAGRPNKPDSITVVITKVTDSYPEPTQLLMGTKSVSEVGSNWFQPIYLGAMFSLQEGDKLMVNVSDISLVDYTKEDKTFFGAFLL

T2: recombinant human TL1A (human, UniProt O95150 71-251)
T2 construct: homotrimer; biotinylated for SPR capture; the ELISA paragraphs say only 'recombinant TL1A'; also called TNFSF15
T2 chain: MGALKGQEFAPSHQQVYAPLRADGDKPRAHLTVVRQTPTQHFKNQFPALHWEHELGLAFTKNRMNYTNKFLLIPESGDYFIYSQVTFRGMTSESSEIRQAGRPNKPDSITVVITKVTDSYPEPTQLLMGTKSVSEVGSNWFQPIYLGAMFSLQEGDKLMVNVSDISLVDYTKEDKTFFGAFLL


Tests used:
recombinant human TL1A [1] = molecular target: T1, recombinant human TL1A; test: cell-based or functional assay
recombinant human TL1A [2] = molecular target: T1, recombinant human TL1A; test: competition ELISA, coated TL1A, competitor bio-TL1A-0002
Description: (§1) For this competition ELISA assay procedure, 96-well high binding plates (Corning, product number 3590) were coated with 1 μg/mL recombinant TL1A in 100 μL/well in Phospate Buffered Saline (PBS) overnight at 4° C. Plates were then blocked in PBS+0.02% casein solution and washed with PBS+0.05% Tween-20 following standard ELISA protocol. […] Plates were washed with PBS+0.05% Tween-20 following standard ELISA protocol, and Streptavidin-HRP (Southern Biotech, product number 7100-05) diluted to 1:10,000 in assay buffer was added to plates and incubated for 25-30 minutes at room temperature. Next, the plates were washed with PBS+0.05% Tween-20 following standard ELISA protocol, and then TMB substrate (BioFX Laboratories, catalog number TMBW-0100-01) was added to plates. Reactions were stopped after approximately 5 minutes by adding 0.18 M ortho-phosphoric acid to each well and absorbance was read at 450 nm.

recombinant human TL1A [3] = molecular target: T2, recombinant human TL1A; test: competition ELISA vs bio-TL1A-0002
Description: as §1

Binder | TF-1 NF-κB reporter cell bioassay IC50 (recombinant human TL1A [1]) [nM] | TF-1 NF-κB reporter cell bioassay, Bioactivity relative to TL1A-0002 (recombinant human TL1A [1]) [fold] | Whole blood IFNγ assay IC50 (recombinant human TL1A [1]) [nM] | Whole blood IFNγ assay, Bioactivity relative to TL1A-0002 (recombinant human TL1A [1]) [fold] | Bioactivity relative to TL1A-0002 (recombinant human TL1A [2]) [fold] | IC50 (recombinant human TL1A [2]) [nM] | Bioactivity relative to TL1A-0002 (recombinant human TL1A [3]) [fold] | IC50 (recombinant human TL1A [3]) [nM]
TL1A-0262 (antibody, human IgG1, kappa, V domains shown, human IgG1 effector-function-minimized/kappa) VH: QVQLVQSGAEVKKPGASVKVSCKASGYDYTYYGISWVRQAPGQGLEWMGWISTYNTGTHYAQKLQGRVTMTTDTSTSTAYMELRSLRSDDTAVYYCARESYYGSGAFRGGMDVWGQGTTVTVSS VL: DIQMTQSPSSLSASVGDRVTITCRASQSVSSYLAWYQQKPGKAPKLLIYDASNRATGVPSRFSGSGSGTDFTLTISSLQPEDFATYYCQQRSNWPWTFGQGTKVEIKR | 43.9 | 1.3 | 1.03 | 1.2 | 1.4 | 7.3 |  | 
TL1A-0193 (antibody, IgG1, V domains shown, IgG1/kappa variant of TL1A-0002) VH: QVQLVQSGAEVKKPGASVKVSCKASGYDFTYYGISWVRQAPGQGLEWMGWISTYNGNTHYARMLQGRVTMTTDTSTRTAYMELRSLRSDDTAVYYCAREQYYGSGEYRGGMDVWGQGTTVTVSS VL: EIVLTQSPATLSLSPGERATLSCRASQSVSSYLAWYQQKPGQAPRLLIYDASNRATGIPARFSGSGSGTDFTLTISSLEPEDFAVYYCQQRSNWPWTFGQGTKVEIKR |  |  |  |  |  |  | 2.7 | 12
TL1A-0261 (antibody, human IgG1, kappa, V domains shown, human IgG1 effector-function-minimized/kappa) VH: QVQLVQSGAEVKKPGASVKVSCKASGYDYTYYGISWVRQAPGQGLEWMGWISTYNTGTHYAPSLQGRVTMTTDTSTSTAYMELRSLRSDDTAVYYCARESYYGSGAHRGGMDVWGQGTTVTVSS VL: DIQMTQSPSSLSASVGDRVTITCRASQSVSSYLAWYQQKPGKAPKLLIYDASNRATGVPSRFSGSGSGTDFTLTISSLQPEDFATYYCQQRSNWPWTFGQGTKVEIKR | 29.5 | 0.8 | 0.923 | 1.1 | 1.1 | 5.6 |  | 

Next, values leading:

TF-1 NF-κB reporter cell bioassay IC50 (recombinant human TL1A [1]) [nM] | TF-1 NF-κB reporter cell bioassay, Bioactivity relative to TL1A-0002 (recombinant human TL1A [1]) [fold] | Whole blood IFNγ assay IC50 (recombinant human TL1A [1]) [nM] | Whole blood IFNγ assay, Bioactivity relative to TL1A-0002 (recombinant human TL1A [1]) [fold] | Bioactivity relative to TL1A-0002 (recombinant human TL1A [2]) [fold] | IC50 (recombinant human TL1A [2]) [nM] | Bioactivity relative to TL1A-0002 (recombinant human TL1A [3]) [fold] | IC50 (recombinant human TL1A [3]) [nM] | Binder
 |  |  |  |  |  | 0.9 | 4.2 | TL1A-0167 (antibody, human IgG1, kappa, V domains shown, TL1A-0002 heavy chain with R(H76)S, TL1A-0002 light chain) VH: QVQLVQSGAEVKKPGASVKVSCKASGYDFTYYGISWVRQAPGQGLEWMGWISTYNGNTHYARMLQGRVTMTTDTSTSTAYMELRSLRSDDTAVYYCARENYYGSGAYRGGMDVWGQGTTVTVSS VL: EIVLTQSPATLSLSPGERATLSCRASQSVSSYLAWYQQKPGQAPRLLIYDASNRATGIPARFSGSGSGTDFTLTISSLEPEDFAVYYCQQRSNWPWTFGQGTKVEIKR
 |  |  |  |  |  | 2.2 | 10 | TL1A-0097 (antibody, IgG1, V domains shown, IgG1/kappa variant of TL1A-0002) VH: QVQLVQSGAEVKKPGASVKVSCKASGYDFTYYGISWVRQAPGQGLEWMGWISTYNGNTHYARMLQGRVTMTTDTSTRTAYMELRSLRSDDTAVYYCAREQYYGSGAYRGGMDVWGQGTTVTVSS VL: EIVLTQSPATLSLSPGERATLSCRASQSVSSYLAWYQQKPGQAPRLLIYDASNRATGIPARFSGSGSGTDFTLTISSLEPEDFAVYYCQQRSNWPWTFGQGTKVEIKR
 |  |  |  |  |  | 1.9 | 8.7 | TL1A-0197 (antibody, IgG1, V domains shown, IgG1/kappa variant of TL1A-0002) VH: QVQLVQSGAEVKKPGASVKVSCKASGYDFTYYGISWVRQAPGQGLEWMGWISTYNGNTHYARMLQGRVTMTTDTSTRTAYMELRSLRSDDTAVYYCARESYYGSGAFRGGMDVWGQGTTVTVSS VL: EIVLTQSPATLSLSPGERATLSCRASQSVSSYLAWYQQKPGQAPRLLIYDASNRATGIPARFSGSGSGTDFTLTISSLEPEDFAVYYCQQRSNWPWTFGQGTKVEIKR
 |  |  |  |  |  | 1.8 | 8.3 | TL1A-0194 (antibody, IgG1, V domains shown, IgG1/kappa variant of TL1A-0002) VH: QVQLVQSGAEVKKPGASVKVSCKASGYDFTYYGISWVRQAPGQGLEWMGWISTYNGNTHYARMLQGRVTMTTDTSTRTAYMELRSLRSDDTAVYYCAREQYYGSGAFRGGMDVWGQGTTVTVSS VL: EIVLTQSPATLSLSPGERATLSCRASQSVSSYLAWYQQKPGQAPRLLIYDASNRATGIPARFSGSGSGTDFTLTISSLEPEDFAVYYCQQRSNWPWTFGQGTKVEIKR
 |  |  |  |  |  | 1.5 | 6.6 | TL1A-0098 (antibody, IgG1, V domains shown, IgG1/kappa variant of TL1A-0002) VH: QVQLVQSGAEVKKPGASVKVSCKASGYDFTYYGISWVRQAPGQGLEWMGWISTYNGNTHYARMLQGRVTMTTDTSTRTAYMELRSLRSDDTAVYYCAREEYYGSGAYRGGMDVWGQGTTVTVSS VL: EIVLTQSPATLSLSPGERATLSCRASQSVSSYLAWYQQKPGQAPRLLIYDASNRATGIPARFSGSGSGTDFTLTISSLEPEDFAVYYCQQRSNWPWTFGQGTKVEIKR
